The Km is the concentration of substrate that gives half-maximal velocity. What is called kcat is the maximal rate divided by the concentration of active sites. What is called kcat/Km is the second-order rate constant that governs catalysis at low substrate concentration.

Substrate in the data set: Nc1nc(O)nc(O)n1
Briefly: purified protein. As to conditions: 200 mM sodium phosphate pH 7.5, glycerol, 301 K, 28.0 °C.

B1: AtzC (N-isopropylammelide isopropylaminohydrolase) (Pseudomonas sp. ADP) (protein)
chain: MSKDFDLIIRNAYLSEKDSVYDIGIVGDRIIKIEAKIEGTVKDEIDAKGNLVSPGFVDAHTHMDKSFTSTGERLPKFWSRPYTRDAAIEDGLKYYKNATHEEIKRHVIEHAHMQVLHGTLYTRTHVDVDSVAKTKAVEAVLEAKEELKDLIDIQVVAFAQSGFFVDLESESLIRKSLDMGCDLVGGVDPATRENNVEGSLDLCFKLAKEYDVDIDYHIHDIGTVGVYSINRLAQKTIENGYKGRVTTSHAWCFADAPSEWLDEAIPLYKDSGMKFVTCFSSTPPTMPVIKLLEAGINLGCASDNIRDFWVPFGNGDMVQGALIETQRLELKTNRDLGLIWKMITSEGARVLGIEKNYGIEVGKKADLVVLNSLSPQWAIIDQAKRLCVIKNGRIIVKDEVIVA
As for B1, the Km amounted to 3.1 ± 0.2 mM, the kcat came out at 26.2 ± 1.8 s⁻¹ and the kcat/Km is 8500 M⁻¹ s⁻¹.

The values above are taken from article PMC4577212, “X-Ray Structure and Mutagenesis Studies of the N-Isopropylammelide Isopropylaminohydrolase, AtzC” (PLoS ONE, 2015).
